Measured values taken from patent publication US20210206848A1 (Stanford University, published 2021).

T1: extracellular region of human CD45 (human, UniProt P08575 26-577)
T1 construct: also called hCD45
T1 sequence: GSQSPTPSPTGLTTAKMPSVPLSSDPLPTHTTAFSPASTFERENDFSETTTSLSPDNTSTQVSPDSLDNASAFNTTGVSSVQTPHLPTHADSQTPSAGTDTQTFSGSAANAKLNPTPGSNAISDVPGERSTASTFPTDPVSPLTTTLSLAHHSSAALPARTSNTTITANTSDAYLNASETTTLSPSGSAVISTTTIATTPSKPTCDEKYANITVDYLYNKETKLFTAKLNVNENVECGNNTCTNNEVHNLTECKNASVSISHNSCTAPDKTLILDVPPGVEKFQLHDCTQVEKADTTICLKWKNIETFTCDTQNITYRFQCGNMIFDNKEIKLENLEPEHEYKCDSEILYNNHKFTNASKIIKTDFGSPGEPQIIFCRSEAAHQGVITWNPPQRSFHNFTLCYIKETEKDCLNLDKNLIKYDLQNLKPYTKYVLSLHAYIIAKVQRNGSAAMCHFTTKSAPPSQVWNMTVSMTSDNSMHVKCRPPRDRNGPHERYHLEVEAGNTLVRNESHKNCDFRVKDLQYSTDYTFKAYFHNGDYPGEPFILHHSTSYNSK

B1: CD45-PD1(VHH) (bispecific antibody)
chain: DVQLVESGGGVVQPGGSLRLSCAASGSIASIHAMGWFRQAPGKEREFVAVITWSGGITYYADSVKGRFTISRDNSKNTVYLQMNSLRPEDTALYYCAGDKHQSSWYDYWGQGTLVTVSSGGGSLEVLFQGPGSGSDILLTQSPATLSLSPGERATLSCRASQNIGTSIQWYQQKPGQAPRLLIRSSSESISGISSRFSGSGSGTDFTLTISSLEPEDFAVYYCQQSNTWPFTFGQGTKLEIKGGSTRSSSSGGGGSGGGGQVQLVESGAEVKKPGASVKVSCKASGYTFTNYIIHWVKQEPGQGLEWIGYFNPYNHGTKYNEKFKGRATLTADKSISTAYMELSSLRSEDTAVYYCARSGPYAWFDTWGQGTTVTVSSAAAHHHHHHHH
notes: Anti-CD45 scFv fused to an anti-human PD-1 nanobody (VHH, from US20170137517A1); also called αCD45-PD1(VHH); 2nd generation anti-human RIPR-PD1
B2: CD45-PD1(Nivo)-Stabilized (bispecific antibody)
chain: QVQLVESGAEVKKPGASVKVSCKASGYTFTNYIIHWVKQEPGQGLEWIGYFNPYNHGTKYNEKFKGRATLTADKSISTAYMELSSLTSEDTAVYYCARSGPYAWFDTWGQGTTVTVSSGGGGSEIVLTQSPATLSLSPGERATLSCRASQSVSSYLAWYQQKPGQAPRLLIYDASNRATGIPARFSGSGSGTDFTLTISSLEPEDFAVYYCQQSSNWPRTFGQTKVEIKRRADAAAAGGGGSGGGGSGGGGSGGGGTGGGGSQVQLVESGGGVVQPGRSLRLDCKASGITFSNSGMHWVRQAPGKGLEWVAVIWYDGSKRYYADSVKGRFTISRDNSKNTLFLQMNSLTAEDTAVYYCATNDDYWGQGTLVTVSSGGGGSDILLTQSPATLSLSPGERATLSCRASQNIGTSIQWYQQKPGQAPRLLIRSSSESISGISSRFSGSGSGTDFTLTISSLEPEDFAVYYCQQSNTWPFTFGQGTKLEIKAAAHHHHHHHH
notes: also called αCD45-PD1(Nivo); αCD45-PD1 (Nivo)

Experiments:
[1] = target: T1, extracellular region of human CD45; assay: SPR
[2] = target: T2, extracellular region of human PD-1 (human); assay: SPR
T2 construct: also called hPD-1

[3] = target: T2, extracellular region of human PD-1; assay: SPR; target PD-1 extracellular region
[4] = target: T1, extracellular region of human CD45; assay: SPR; target CD45 extracellular region

T2 sequence (chain, as listed by the source limits assumed): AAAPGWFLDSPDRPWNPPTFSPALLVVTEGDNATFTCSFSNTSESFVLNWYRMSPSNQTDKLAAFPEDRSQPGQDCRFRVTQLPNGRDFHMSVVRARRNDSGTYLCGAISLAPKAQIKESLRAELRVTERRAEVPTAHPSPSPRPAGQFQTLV

Row | Binder | Kd [1] [nM] | Kd [2] [nM] | Kd [3] [nM] | Kd [4] [nM]
1 | B1 | ~700 | ~5 |  | 
2 | B2 |  |  | ~6 | ~300
